Experimental data taken from the supplement of paper PMC9112550, “Optimization of the antimicrobial peptide Bac7 by deep mutational scanning” (BMC Biology, 2022).

Test system: Escherichia coli TOP10
Experiment: shrunken log2 fold change of peptide-encoding DNA abundance (4.5 h post-induction vs induction); higher = less antimicrobial activity (less host growth inhibition)
Details: time post-induction: 4.5 h; library: site-saturation at positions 5, 18, 19, 20
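Note: peptides expressed intracellularly from a pBAD plasmid library in pooled LB shake-flask culture, induced with 0.3% L-arabinose, DNA abundance read by NGS, three biological replicates, DESeq2 with apeglm shrinkage.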

| Sequence | shrunken log2 fold change |
| --- | --- |
| RRIRHRPPRLPRPRPRPLRMPRP | -0.0592 |
| RRIRHRPPRLPRPRPRPLTIPRP | -0.207 |
| RRIRHRPPRLPRPRPRPLTMPRP | -0.3 |
| RRIRHRPPRLPRPRPRPLTVPRP | -0.0423 |
| RRIRHRPPRLPRPRPRPLVLPRP | -0.0931 |
| RRIRHRPPRLPRPRPRPLVPPRP | -0.0575 |
| RRIRHRPPRLPRPRPRPLWSPRP | -0.31 |
| RRIRHRPPRLPRPRPRPLWWPRP | 0.237 |
| RRIRHRPPRLPRPRPRPLYLPRP | -0.4 |
| RRIRHRPPRLPRPRPRPMARPRP | 0.0467 |
| RRIRHRPPRLPRPRPRPMCRPRP | -0.0487 |
| RRIRHRPPRLPRPRPRPMFQPRP | -0.0107 |
| RRIRHRPPRLPRPRPRPMGWPRP | 0.317 |
| RRIRHRPPRLPRPRPRPMHDPRP | -0.0353 |
| RRIRHRPPRLPRPRPRPMKYPRP | -0.0485 |
| RRIRHRPPRLPRPRPRPMLFPRP | -0.0839 |
| RRIRHRPPRLPRPRPRPMLTPRP | 0.0372 |
| RRIRHRPPRLPRPRPRPMMCPRP | -0.0874 |
| RRIRHRPPRLPRPRPRPMMDPRP | -0.214 |
| RRIRHRPPRLPRPRPRPMMGPRP | -0.01 |
| RRIRHRPPRLPRPRPRPMNPPRP | -0.379 |
| RRIRHRPPRLPRPRPRPMPDPRP | -0.276 |
| RRIRHRPPRLPRPRPRPMPYPRP | -0.00164 |
| RRIRHRPPRLPRPRPRPMQEPRP | -0.01 |
| RRIRHRPPRLPRPRPRPMQGPRP | -0.0154 |

| Sequence | shrunken log2 fold change |
| --- | --- |
| RRIRHRPPRLPRPRPRPMRWPRP | 0.396 |
| RRIRHRPPRLPRPRPRPMRYPRP | -0.0889 |
| RRIRHRPPRLPRPRPRPMSLPRP | -0.00613 |
| RRIRHRPPRLPRPRPRPMTCPRP | -0.137 |
| RRIRHRPPRLPRPRPRPMTRPRP | -0.0247 |
| RRIRHRPPRLPRPRPRPMVIPRP | -0.0264 |
| RRIRHRPPRLPRPRPRPMVKPRP | -0.0243 |
| RRIRHRPPRLPRPRPRPMWIPRP | -0.0176 |
| RRIRHRPPRLPRPRPRPMYLPRP | -0.412 |
| RRIRHRPPRLPRPRPRPMYQPRP | -0.00419 |
| RRIRHRPPRLPRPRPRPNAFPRP | -0.14 |
| RRIRHRPPRLPRPRPRPNCHPRP | -0.444 |
| RRIRHRPPRLPRPRPRPNCLPRP | -0.0125 |
| RRIRHRPPRLPRPRPRPNDDPRP | -0.259 |
| RRIRHRPPRLPRPRPRPNDSPRP | -0.072 |
| RRIRHRPPRLPRPRPRPNETPRP | 0.00408 |
| RRIRHRPPRLPRPRPRPNFKPRP | -0.189 |
| RRIRHRPPRLPRPRPRPNFMPRP | -0.5 |
| RRIRHRPPRLPRPRPRPNGLPRP | -0.57 |
| RRIRHRPPRLPRPRPRPNHAPRP | -0.223 |
| RRIRHRPPRLPRPRPRPNHMPRP | 0.124 |
| RRIRHRPPRLPRPRPRPNIKPRP | -0.69 |
| RRIRHRPPRLPRPRPRPNKAPRP | 0.147 |
| RRIRHRPPRLPRPRPRPNKCPRP | -0.431 |
| RRIRHRPPRLPRPRPRPNKEPRP | 0.000399 |

| Sequence | shrunken log2 fold change |
| --- | --- |
| RRIRHRPPRLPRPRPRPNKLPRP | -1.05 |
| RRIRHRPPRLPRPRPRPNKQPRP | -0.545 |
| RRIRHRPPRLPRPRPRPNMCPRP | -0.126 |
| RRIRHRPPRLPRPRPRPNMGPRP | -0.0579 |
| RRIRHRPPRLPRPRPRPNMIPRP | -0.928 |
| RRIRHRPPRLPRPRPRPNNKPRP | -0.75 |
| RRIRHRPPRLPRPRPRPNQHPRP | -0.922 |
| RRIRHRPPRLPRPRPRPNRQPRP | -0.0122 |
| RRIRHRPPRLPRPRPRPNSLPRP | -0.0817 |
| RRIRHRPPRLPRPRPRPNTGPRP | 0.121 |
| RRIRHRPPRLPRPRPRPNTVPRP | 0.0932 |
| RRIRHRPPRLPRPRPRPNVDPRP | 0.187 |
| RRIRHRPPRLPRPRPRPNYQPRP | -0.28 |
| RRIRHRPPRLPRPRPRPPACPRP | 0.153 |
| RRIRHRPPRLPRPRPRPPALPRP | -0.00181 |
| RRIRHRPPRLPRPRPRPPASPRP | 1.36 |
| RRIRHRPPRLPRPRPRPPCYPRP | -0.131 |
| RRIRHRPPRLPRPRPRPPDPPRP | 0.832 |
| RRIRHRPPRLPRPRPRPPDQPRP | 0.594 |
| RRIRHRPPRLPRPRPRPPDVPRP | 0.113 |
| RRIRHRPPRLPRPRPRPPERPRP | 0.511 |
| RRIRHRPPRLPRPRPRPPGTPRP | 0.0679 |
| RRIRHRPPRLPRPRPRPPGWPRP | 0.424 |
| RRIRHRPPRLPRPRPRPPINPRP | -0.294 |
| RRIRHRPPRLPRPRPRPPKAPRP | 0.0427 |
